Reference: PMC12605379, “Monomeric Glycine oxidase from Azotobacter vinelandii for Glycine biosensing” (World Journal of Microbiology & Biotechnology, 2025)

How the values were obtained:
[1] = molecular target: T1, AviGO (glycine oxidase from A. vinelandii) (Azotobacter vinelandii, UniProt C1DPI5); assay: UV-visible spectroscopy of the purified enzyme; type: binding; settings: copurified cofactor; occupancy, no affinity constant
T1 construct: gene thiO; codon-optimised synthetic gene in pCold I (NdeI/XbaI), expressed in E. coli BL21(DE3); HisTrap then Q-Sepharose, vector His tag, no cleavage told
T1 sequence (C1DPI5 1-363): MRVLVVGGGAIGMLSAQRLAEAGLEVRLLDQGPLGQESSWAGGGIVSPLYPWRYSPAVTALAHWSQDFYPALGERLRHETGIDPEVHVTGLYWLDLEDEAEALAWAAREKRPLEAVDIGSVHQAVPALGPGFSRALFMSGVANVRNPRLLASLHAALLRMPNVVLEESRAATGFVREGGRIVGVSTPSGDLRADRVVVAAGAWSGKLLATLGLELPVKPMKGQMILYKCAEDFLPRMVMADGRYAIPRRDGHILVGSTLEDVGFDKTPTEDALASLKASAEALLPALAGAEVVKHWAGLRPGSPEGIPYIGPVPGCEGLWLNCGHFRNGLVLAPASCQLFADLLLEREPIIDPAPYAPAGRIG
Description: UV-visible spectroscopy of the purified enzyme on AviGO (glycine oxidase from A. vinelandii) | The FAD/AviGO ratio was calculated from UV-visible spectroscopy of the purified enzyme

[2] = molecular target: T1, AviGO (glycine oxidase from A. vinelandii); assay: HRP-coupled H2O2 assay (4-aminoantipyrine / N,N-diethylaniline, […] nm), substrate inhibition model; type: biochemical; settings: substrate inhibition constant; 100 mM Tris-HCl pH 8.5, free enzyme 20 nM
[3] = substrate: NCC(=O)O; assay: purified protein; type: biochemical, Azotobacter vinelandii; settings: 100 mM Tris-HCl pH 8.5, free enzyme 20 nM, 0.5-100 mM substrate, abstract prints Km 4.65
[4] = substrate: CNCC(=O)O; assay: purified protein; type: biochemical, Azotobacter vinelandii; settings: 100 mM Tris-HCl pH 8.5, free enzyme 20 nM, 0.5-100 mM substrate

For Cc1cc2nc3c(=O)[nH]c(=O)nc-3n(C[C@H](O)[C@H](O)[C@H](O)COP(=O)(O)OP(=O)(O)OC[C@H]3O[C@@H](n4cnc5c(N)ncnc54)[C@H](O)[C@@H]3O)c2cc1C [FAD], the FAD/AviGO ratio [1] was 0.38.

In the case of NCC(=O)O [glycine], the “Glycine / ksi” value [2] is reported as 23.00 ± 3.71 mM.

B1: AviGO (glycine oxidase from A. vinelandii) (Azotobacter vinelandii DJ) (protein)
chain: T1 sequence (C1DPI5 1-363)
notes: codon-optimised synthetic gene in pCold I (NdeI/XbaI), expressed in E. coli BL21(DE3); HisTrap then Q-Sepharose, vector His tag, no cleavage told
Molecule B1 has a Km [3] of 4.76 ± 0.83 mM, a kcat [3] of 0.38 ± 0.03 s⁻¹ and a Km [4] of 11.09 ± 0.75 mM. It also gave a kcat [4] of 0.62 ± 0.01 s⁻¹.
